Experimental data: IntAct's records for PubMed 22648170

B1: Disabled homolog 2 (Mus musculus), P98078-1 (parent)
chain: MSNEVETSTTNGQPDQQAAPKAPSKKEKKKGSEKTDEYLLARFKGDGVKYKAKLIGIDDVPDARGDKMSQDSMMKLKGMAAAGRSQGQHKQRIWVNISLSGIKIIDEKTGVIEHEHPVNKISFIARDVTDNRAFGYVCGGEGQHQFFAIKTGQQAEPLVVDLKDLFQVIYNVKKKEEDKKKVEEANKAEENGSEALMTLDDQANKLKLGVDQMDLFGDMSTPPDLNSPTESKDILLVDLNSEIDTNQNSLRENPFLTNGVTSCSLPRPKPQASFLPENAFSANLNFFPTPNPDPFRDDPFAQPDQSAPSSFDSLTSPDQKKASLSSSSTPQSKGPLNGDTDYFGQQFDQLSNRTGKPEAQGGPWPYPSSQTQQAVRTQNGVSEREQNGFHIKSSPNPFVGSPPKGLSVPNGVKQDLESSVQSSAHDSIAIIPPPQSTKPGRGRRTAKSSANDLLASDIFASEPPGQMSPTGQPAVPQSNFLDLFKGNAPAPVGPLVGLGTVPVTPPQAGPWTPVVYSPSTTVVPGAIISGQPPSFRQPLVFGTTPAVQVWNQSPSFATPASPPPPTVWCPTTSVAPNAWSSTSPLGNPFQSNNIFPPPTMSTQSSPQPMMSSVLATPPQPPPRNGPLKDIPSDAFTGLDPLGDKEVKEVKEMFKDFQLRQPPLVPSRKGETPPSGTSSAFSSYFNNKVGIPQEHVDHDDFDANQLLNKINEPPKPAPRQGVLLGTKSADNSLENPFSKGFSSSNPSVVSQPASSDPHRSPFGNPFA
partner: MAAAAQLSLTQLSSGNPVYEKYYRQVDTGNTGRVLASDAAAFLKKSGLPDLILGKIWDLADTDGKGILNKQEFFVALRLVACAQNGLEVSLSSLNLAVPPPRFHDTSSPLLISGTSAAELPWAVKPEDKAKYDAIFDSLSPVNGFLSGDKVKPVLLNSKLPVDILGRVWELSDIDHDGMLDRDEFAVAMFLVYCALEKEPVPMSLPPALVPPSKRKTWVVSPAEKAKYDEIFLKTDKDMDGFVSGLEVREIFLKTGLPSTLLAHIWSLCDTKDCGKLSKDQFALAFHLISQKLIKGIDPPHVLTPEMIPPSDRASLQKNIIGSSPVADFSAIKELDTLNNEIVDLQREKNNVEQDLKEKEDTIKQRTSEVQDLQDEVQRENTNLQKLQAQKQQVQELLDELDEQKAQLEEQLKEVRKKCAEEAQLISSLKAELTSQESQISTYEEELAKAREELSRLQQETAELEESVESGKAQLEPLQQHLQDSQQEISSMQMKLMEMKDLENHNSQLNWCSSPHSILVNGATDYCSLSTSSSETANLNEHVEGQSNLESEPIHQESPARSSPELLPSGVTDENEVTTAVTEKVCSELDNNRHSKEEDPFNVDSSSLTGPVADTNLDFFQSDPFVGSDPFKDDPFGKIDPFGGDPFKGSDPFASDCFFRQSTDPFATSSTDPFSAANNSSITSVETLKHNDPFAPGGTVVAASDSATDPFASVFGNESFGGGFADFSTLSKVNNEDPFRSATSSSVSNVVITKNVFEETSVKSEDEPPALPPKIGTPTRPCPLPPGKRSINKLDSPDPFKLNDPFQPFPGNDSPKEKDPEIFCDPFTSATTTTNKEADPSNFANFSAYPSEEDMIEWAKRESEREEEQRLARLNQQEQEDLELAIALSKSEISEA
B2: Disabled homolog 2 (Mus musculus), P98078-1 (parent)
chain: B1 chain

Variants of: B1
Conditions: with eps15_human EPS15, P42566
In the case of F589V;F736V;F765V, the “effect of a mutation on the interaction” value is reported as “disrupting interaction”.

Variants of: B2
Conditions: with itsn1_mouse Itsn1, Q9Z0R4
itsn1_mouse Itsn1, Q9Z0R4, sequence (Q9Z0R4 whole entry): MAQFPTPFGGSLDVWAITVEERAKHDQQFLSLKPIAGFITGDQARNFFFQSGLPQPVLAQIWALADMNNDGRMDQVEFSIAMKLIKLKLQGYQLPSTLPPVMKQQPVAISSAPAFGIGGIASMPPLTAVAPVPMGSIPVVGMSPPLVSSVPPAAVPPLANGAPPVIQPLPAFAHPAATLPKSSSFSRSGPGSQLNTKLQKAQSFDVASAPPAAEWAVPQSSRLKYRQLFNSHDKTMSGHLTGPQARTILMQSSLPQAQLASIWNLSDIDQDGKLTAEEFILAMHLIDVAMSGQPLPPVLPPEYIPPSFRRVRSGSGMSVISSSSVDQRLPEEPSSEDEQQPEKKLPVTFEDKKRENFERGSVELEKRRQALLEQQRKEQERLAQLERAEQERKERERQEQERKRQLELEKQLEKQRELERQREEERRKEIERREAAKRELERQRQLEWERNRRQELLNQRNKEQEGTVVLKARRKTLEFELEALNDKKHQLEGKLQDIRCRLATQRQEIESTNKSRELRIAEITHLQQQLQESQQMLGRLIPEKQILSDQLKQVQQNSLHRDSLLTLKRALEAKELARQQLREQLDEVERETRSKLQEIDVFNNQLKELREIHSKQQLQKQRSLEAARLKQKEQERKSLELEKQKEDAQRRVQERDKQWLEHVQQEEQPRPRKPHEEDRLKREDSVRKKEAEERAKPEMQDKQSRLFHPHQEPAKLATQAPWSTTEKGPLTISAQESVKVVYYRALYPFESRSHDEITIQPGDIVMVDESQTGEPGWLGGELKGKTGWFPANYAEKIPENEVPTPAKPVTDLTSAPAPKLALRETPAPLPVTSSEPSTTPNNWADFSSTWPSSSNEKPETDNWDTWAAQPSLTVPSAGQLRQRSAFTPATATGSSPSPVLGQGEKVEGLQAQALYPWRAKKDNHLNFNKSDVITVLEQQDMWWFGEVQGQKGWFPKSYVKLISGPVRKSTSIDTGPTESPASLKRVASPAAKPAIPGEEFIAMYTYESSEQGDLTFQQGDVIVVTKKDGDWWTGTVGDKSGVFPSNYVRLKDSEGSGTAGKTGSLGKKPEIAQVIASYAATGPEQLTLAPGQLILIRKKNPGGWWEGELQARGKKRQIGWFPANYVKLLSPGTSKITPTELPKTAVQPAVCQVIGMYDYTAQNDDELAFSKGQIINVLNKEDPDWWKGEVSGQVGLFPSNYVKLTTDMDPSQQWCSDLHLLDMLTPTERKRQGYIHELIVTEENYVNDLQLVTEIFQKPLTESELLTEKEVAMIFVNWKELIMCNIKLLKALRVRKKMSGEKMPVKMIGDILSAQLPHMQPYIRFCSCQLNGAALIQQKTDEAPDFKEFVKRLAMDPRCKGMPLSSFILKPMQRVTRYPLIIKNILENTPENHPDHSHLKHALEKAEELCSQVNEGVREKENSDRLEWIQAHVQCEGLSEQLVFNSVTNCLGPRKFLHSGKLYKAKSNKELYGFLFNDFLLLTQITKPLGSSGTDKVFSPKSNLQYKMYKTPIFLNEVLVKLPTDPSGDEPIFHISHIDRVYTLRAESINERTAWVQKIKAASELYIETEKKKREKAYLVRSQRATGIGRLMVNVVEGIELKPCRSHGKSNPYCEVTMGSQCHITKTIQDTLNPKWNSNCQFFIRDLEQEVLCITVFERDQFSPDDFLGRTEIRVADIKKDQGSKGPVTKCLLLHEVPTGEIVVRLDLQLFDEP
For F589V;F736V;F765V, the “effect of a mutation on the interaction” value was “decreasing interaction”. In the case of F255V;F398V, the “effect of a mutation on the interaction” value is reported as “decreasing interaction”. For F255V;F398V;F589V;F736V;F765V, the “effect of a mutation on the interaction” value was “disrupting interaction”.
